Biological target: T1, in vitro translated GGA3 wild type (from HA-GGA3 pcDNA4 plasmid), Q9NZ52
T1 chain: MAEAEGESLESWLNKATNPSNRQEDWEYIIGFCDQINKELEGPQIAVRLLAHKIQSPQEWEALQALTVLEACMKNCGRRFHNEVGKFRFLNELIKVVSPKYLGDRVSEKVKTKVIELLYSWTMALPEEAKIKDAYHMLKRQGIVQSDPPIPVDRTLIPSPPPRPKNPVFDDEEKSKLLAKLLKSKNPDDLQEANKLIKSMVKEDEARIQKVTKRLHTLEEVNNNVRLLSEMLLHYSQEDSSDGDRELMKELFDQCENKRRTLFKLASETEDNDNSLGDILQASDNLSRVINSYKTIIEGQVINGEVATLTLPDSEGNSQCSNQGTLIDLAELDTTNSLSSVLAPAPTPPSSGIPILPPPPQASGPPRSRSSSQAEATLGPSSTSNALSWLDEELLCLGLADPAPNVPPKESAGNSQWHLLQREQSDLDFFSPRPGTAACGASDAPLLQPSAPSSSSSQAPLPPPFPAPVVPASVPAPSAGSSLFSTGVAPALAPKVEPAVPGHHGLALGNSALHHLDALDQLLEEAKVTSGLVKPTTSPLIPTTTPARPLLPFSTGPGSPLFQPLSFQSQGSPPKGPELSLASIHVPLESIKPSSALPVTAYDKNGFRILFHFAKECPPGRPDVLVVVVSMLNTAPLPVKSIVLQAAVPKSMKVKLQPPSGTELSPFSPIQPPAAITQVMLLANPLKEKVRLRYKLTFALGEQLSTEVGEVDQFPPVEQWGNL

B1: recombinant caspase 3 (Pharmingen) (protein)
chain: SGISLDNSYKMDYPEMGLCIIINNKNFHKSTGMTSRSGTDVDAANLRETFRNLKYEVRNKNDLTREEIVELMRDVSKEDHSKRSSFVCVLLSHGEEGIIFGTNGPVDLKKITNFFRGDRCRSLTGKPKLFIIQACRGTELDCGIETDSGVDDDMACHKIPVEADFLYAYSTAPGYYSWRNSKDGSWFIQSLCAMLKQYADKLEFMHILTRVNRKVATEFESFSFDATFHAKKQIPCIVSMLTKELYFYH
cleavage of in vitro translated GGA3 (cold methionine), Western blot with anti-GGA3 antibody: recombinant caspase 3 cleaves in vitro translated GGA3 (cold methionine) in three fragments | cleavage of in vitro translated [35S]-methionine-labeled GGA3 (SDS-PAGE, phosphorimager): Recombinant caspase 3 cleaved in vitro translated GGA3 in several fragments

From US20080118499
